The values below come from patent US20240132578A1.

Common to all, as to assay: cell-based or functional assay
Test [1] has as its target HIV-1 MGRM-G-004 Env (pseudovirus) (HIV-1).
For test [2], the target named is HIV-1 Env of isolate MGRM-A-011 (clade A pseudovirus) (HIV-1).
For test [3], the target named is HIV-1 92BR020 envelope (Env) on pseudovirus (HIV-1).
The target of test [4] is HIV-1 Env of pseudovirus MGRM-G-027 (HIV-1).
Test [5] deals with HIV-1 93UG077 envelope (Env) on pseudovirus (HIV-1).
For test [6], the target named is HIV-1 Env of isolate 92BR020, clade B (HIV-1).
In test [7] the target is HIV-1 Env of pseudovirus MGRM-F1-023 (clade F) (HIV-1).
The target of test [8] is HIV-1 Env of isolate 92RW026 (clade A pseudovirus) (HIV-1).
For test [9], the target named is HIV-1 NL43 envelope (Env) on pseudovirus (HIV-1).
Test [10] has as its target HIV-1 Env of isolate MGRM-D-026 (clade D pseudovirus) (HIV-1).
In test [11] the target is HIV-1 Env of pseudovirus MGRM-F1-013 (HIV-1).
The target of test [12] is HIV-1 Env of isolate MGRM-AE-008 (pseudovirus) (HIV-1).
For test [13], the target named is HIV-1 envelope glycoprotein (Env) of isolate 93IN905, on pseudovirus (HIV-1).
For test [14], the target named is HIV-1 Env of isolate MGRM-AG-012 (pseudovirus) (HIV-1).
Test [15] deals with HIV-1 envelope glycoprotein (Env) of isolate TRJO4551.58, on pseudovirus (HIV-1).
For test [16], the target named is HIV-1 MGRM-A-010 Env (HIV-1).
For test [17], the target named is HIV-1 JR-CSF Env L416A (HIV-1 (isolate JR-CSF)) (UniProt P20871).
Test [18] concerns the target HIV-1 JR-CSF Env S334A (HIV-1 isolate JR-CSF) (UniProt P20871).
Test [19] concerns the target HIV-1 envelope glycoprotein (Env) of isolate APV_17, on pseudovirus (HIV-1).
Test [20] addresses HIV-1 JR-CSF Env W395A (HIV-1 (isolate JR-CSF)) (UniProt P20871).
Test [21] deals with HIV-1 envelope glycoprotein (Env) of isolate MG RM-A-005, subtype A (HIV-1).
Test [22] addresses HIV-1 Env of isolate MGRM-G-001 (subtype G) (HIV-1).
Test [23] deals with HIV-1 Env of isolate 92RW008 (subtype A) (HIV-1).
The target in test [24] is HIV-1 Env of isolate MG RM-A-009 (pseudovirus) (HIV-1).
Test [25] deals with HIV-1 Env of isolate 92UG024 (HIV-1).
Test [26] has as its target HIV-1 Env of isolate MGRM-G-009 (subtype G) (HIV-1).
The target in test [27] is HIV-1 Env of pseudovirus isolate MGRM-Chronic-B-004 (clade B) (HIV-1).
Test [28] deals with HIV-1 Env of isolate 98CN009 (HIV-1).

1443_C16 (PG16) (TCN-116) (antibody), sequence (VH): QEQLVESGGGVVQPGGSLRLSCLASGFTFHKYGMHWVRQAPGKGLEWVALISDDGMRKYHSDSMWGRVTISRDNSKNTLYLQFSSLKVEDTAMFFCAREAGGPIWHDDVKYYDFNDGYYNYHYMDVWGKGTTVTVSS
1443_C16 (PG16) (TCN-116) (antibody), sequence (VL): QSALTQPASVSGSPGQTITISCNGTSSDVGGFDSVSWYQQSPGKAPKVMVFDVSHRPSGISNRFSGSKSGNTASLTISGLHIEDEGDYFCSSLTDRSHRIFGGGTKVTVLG
4980_N08 (PGT-143) (antibody), sequence (VH): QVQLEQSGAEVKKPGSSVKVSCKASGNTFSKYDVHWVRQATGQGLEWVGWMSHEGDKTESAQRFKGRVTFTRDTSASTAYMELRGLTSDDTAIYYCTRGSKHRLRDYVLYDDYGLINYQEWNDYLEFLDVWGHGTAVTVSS
4980_N08 (PGT-143) (antibody), sequence (VL): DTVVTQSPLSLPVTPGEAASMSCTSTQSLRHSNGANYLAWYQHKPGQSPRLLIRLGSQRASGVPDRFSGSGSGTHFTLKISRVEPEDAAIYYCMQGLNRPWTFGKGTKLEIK
PGT-145 (4995_P16) (antibody), sequence (VH): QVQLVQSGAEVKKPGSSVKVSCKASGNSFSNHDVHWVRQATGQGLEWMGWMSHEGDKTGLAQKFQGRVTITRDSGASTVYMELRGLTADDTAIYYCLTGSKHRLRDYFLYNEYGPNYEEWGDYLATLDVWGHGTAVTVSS
PGT-145 (4995_P16) (antibody), sequence (VL): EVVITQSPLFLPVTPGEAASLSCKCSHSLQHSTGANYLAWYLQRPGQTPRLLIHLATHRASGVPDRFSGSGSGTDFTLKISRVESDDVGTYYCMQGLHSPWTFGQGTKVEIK
PGT-141 (4964_G22; 4993_K13) (antibody), sequence (VH): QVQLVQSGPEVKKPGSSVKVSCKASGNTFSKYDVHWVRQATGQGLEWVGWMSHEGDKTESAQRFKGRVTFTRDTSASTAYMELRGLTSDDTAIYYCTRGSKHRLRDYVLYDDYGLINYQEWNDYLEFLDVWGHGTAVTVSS
PGT-141 (4964_G22; 4993_K13) (antibody), sequence (VL): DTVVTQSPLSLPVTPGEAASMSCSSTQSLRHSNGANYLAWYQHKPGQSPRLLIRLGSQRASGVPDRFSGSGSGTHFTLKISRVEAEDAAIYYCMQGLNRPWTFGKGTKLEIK
PGT-144 (4970_K22) (antibody), sequence (VH): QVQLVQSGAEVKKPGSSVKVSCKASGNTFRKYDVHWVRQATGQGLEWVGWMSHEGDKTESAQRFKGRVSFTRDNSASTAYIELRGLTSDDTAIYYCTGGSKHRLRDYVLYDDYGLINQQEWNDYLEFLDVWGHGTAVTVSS
PGT-144 (4970_K22) (antibody), sequence (VL): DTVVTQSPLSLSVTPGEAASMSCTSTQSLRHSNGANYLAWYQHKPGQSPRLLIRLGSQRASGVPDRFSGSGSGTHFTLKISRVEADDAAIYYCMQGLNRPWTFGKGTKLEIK
PGT-142 (4995_E20) (antibody), sequence (VH): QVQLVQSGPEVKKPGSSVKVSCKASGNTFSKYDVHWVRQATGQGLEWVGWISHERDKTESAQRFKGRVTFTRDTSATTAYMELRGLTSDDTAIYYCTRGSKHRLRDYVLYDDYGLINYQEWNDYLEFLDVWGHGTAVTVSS

Consider 4E10 (antibody), for which the IC50 (µg/ml), pseudovirus neutralization was 1.47 µg/mL in test [1]; 2.88 µg/mL in test [2]; 1.19 µg/mL in test [4]; over 50 µg/mL in test [6]; 12.9 µg/mL in test [8]. The neutralization IC50 came to 41.4 µg/mL in [3], 11.2 µg/mL in [5] and 4.95 µg/mL in test [9]. The substance further came in with an IC50 in [7] of 0.44 µg/mL. For the same substance, in test [10], the IC50, pseudovirus neutralization came out at 2.95 µg/mL.
In [11], PGT-144 (4970_K22) (antibody) registered an IC50, pseudovirus neutralization of 0.509 µg/mL.
Regarding PGT-142 (4995_E20) (antibody), the IC50, pseudovirus neutralization in test [11] was determined as 0.023 µg/mL.
Take 4858_P08 (PGT-123) (antibody): the IC50 (µg/mL), pseudovirus neutralization in test [12] and in test [14] was over 50 µg/mL throughout. The IC50, pseudovirus neutralization in test [13] was 0.004 µg/mL; in test [15], 16.9 µg/mL; in test [16], 0.492 µg/mL; in [19], 0.114 µg/mL; in [21], over 50 µg/mL. Further, the Fold IC50 increase relative to wild-type (pseudovirus neutralization) in test [17] amounted to 0.9 fold; in test [20], 0.4 fold. For the same substance, in [18], the Fold IC50 increase relative to wild-type is over 50 fold.
As to b12 (antibody), the IC50 (µg/ml), pseudovirus neutralization is over 50 µg/mL in test [1]; 4.01 µg/mL in test [2]; over 50 µg/mL in test [4]; over 50 µg/mL in test [6]; over 50 µg/mL in test [8]. Moreover, the neutralization IC50 in [3] came out at 27.5 µg/mL; in test [5], 41.1 µg/mL; in test [9], 0.06 µg/mL. For the same substance, the IC50 in [7] was over 50 µg/mL. The substance further yielded an IC50, pseudovirus neutralization in test [10] of 1.55 µg/mL.
For the substance 5145_B14 (PGT-127) (antibody), the IC50 (µg/mL), pseudovirus neutralization in [12] and in [14] was over 50 µg/mL in each case. In addition, the IC50, pseudovirus neutralization in test [13] is 0.024 µg/mL; in test [15], 0.063 µg/mL; in [19], 10.4 µg/mL; in test [21], over 50 µg/mL. The Fold IC50 increase relative to wild-type (pseudovirus neutralization) in [17] was 1 fold; in test [20], 1.6 fold. The substance further showed a Fold IC50 increase relative to wild-type in test [18] of over 500 fold.
Regarding 1443_C16 (PG16) (TCN-116) (antibody), the IC50 (µg/ml), pseudovirus neutralization is over 50 µg/mL in [1]; 0.24 µg/mL in test [2]; 0.01 µg/mL in [4]; over 50 µg/mL in test [6]; 0.03 µg/mL in test [8]. The neutralization IC50 in test [3] is over 50 µg/mL; in test [5] it was over 50 µg/mL; in [9], under 0.0025 µg/mL. Moreover, the IC50 in [7] was over 50 µg/mL. This substance also gave an IC50, pseudovirus neutralization in [10] of over 50 µg/mL.
Consider 5141_B17 (PGT-126) (antibody), for which the IC50 (µg/mL), pseudovirus neutralization in [12] and in [14] was over 50 µg/mL throughout. Besides, the IC50, pseudovirus neutralization is 0.015 µg/mL in [13]; 0.025 µg/mL in test [15]; 0.0033 µg/mL in test [16]; 0.353 µg/mL in [19]; over 50 µg/mL in test [21]. The Fold IC50 increase relative to wild-type (pseudovirus neutralization) was found to be 0.8 fold in test [17] and 0.6 fold in test [20]. Also, the Fold IC50 increase relative to wild-type in test [18] is over 30 fold.
For the substance PGT-145 (4995_P16) (antibody), in test [11], the IC50, pseudovirus neutralization was determined as 0.402 µg/mL.
Still for that read-out and setting: with PGT-143 (4980_N08) (antibody) the figure was 0.013 µg/mL.
For 5123_A06 (PGT-125) (antibody), the IC50 (µg/mL), pseudovirus neutralization in [12] and in [14] was over 50 µg/mL throughout. The IC50, pseudovirus neutralization in [13] is 0.009 µg/mL; in [15] it was 0.019 µg/mL; in test [16] it was 0.0025 µg/mL; in [19], 8.06 µg/mL; in test [21], over 50 µg/mL. For the same substance, the Fold IC50 increase relative to wild-type (pseudovirus neutralization) in [17] was 0.8 fold; in test [20], 0.9 fold. The substance also showed a Fold IC50 increase relative to wild-type in test [18] of 0.8 fold.
Regarding 1495_C14 (PGC14) (antibody), the IC50 (µg/ml), pseudovirus neutralization in test [1] is over 50 µg/mL; in test [2] it was over 50 µg/mL; in test [4] it was over 50 µg/mL; in test [6], 4 µg/mL; in test [8], over 50 µg/mL. For the same substance, the neutralization IC50 is 0.637 µg/mL in [3], over 50 µg/mL in [5] and 0.373 µg/mL in [9]. The IC50 in test [7] was over 50 µg/mL. Besides, in [10], the IC50, pseudovirus neutralization was over 50 µg/mL.
With VRC01 (antibody), the IC50 (µg/mL), pseudovirus neutralization in [22] is 0.0371 µg/mL; in test [25], 0.576 µg/mL; in test [26] it was 0.073 µg/mL; in test [28], 0.346 µg/mL. Further, the figures for the IC50, pseudovirus neutralization in [23], in test [27] and in test [11] were 0.037 µg/mL, 0.055 µg/mL and 0.17 µg/mL, respectively. In [24], this substance yielded an IC50 (µg/mL), single-round pseudovirus neutralization of 0.118 µg/mL.
Turning to 4980_N08 (PGT-143) (antibody), the IC50 (µg/mL), pseudovirus neutralization in [22] was 0.423 µg/mL; in test [25], over 50 µg/mL; in test [26], 2.97 µg/mL; in test [28], 10.2 µg/mL. For the same substance, the IC50, pseudovirus neutralization came out at 0.385 µg/mL in test [23] and 0.395 µg/mL in test [27]. In test [24], this substance yielded an IC50 (µg/mL), single-round pseudovirus neutralization of 0.05 µg/mL.
2G12 (antibody): the IC50 (µg/ml), pseudovirus neutralization in test [1] was over 50 µg/mL; in test [2] it was over 50 µg/mL; in test [4], over 50 µg/mL; in test [6], 4.84 µg/mL; in [8], 17.2 µg/mL. Further, the neutralization IC50 in [3] is 2.26 µg/mL; in test [5], over 50 µg/mL; in test [9] it was 0.75 µg/mL. In [7], this substance gave an IC50 of 9.23 µg/mL. For the same substance, in [10], the IC50, pseudovirus neutralization is over 50 µg/mL.
With PGT-141 (4964_G22; 4993_K13) (antibody), the IC50, pseudovirus neutralization in test [11] came to 0.043 µg/mL.
Regarding 2F5 (antibody), the IC50 (µg/ml), pseudovirus neutralization in test [1] is over 50 µg/mL; in [2] it was over 50 µg/mL; in [4], 0.28 µg/mL; in test [6], over 50 µg/mL; in test [8], 8.63 µg/mL. The neutralization IC50 was over 50 µg/mL in [3], 4.45 µg/mL in test [5] and 2.41 µg/mL in test [9]. The substance also came in with an IC50 in test [7] of 1.78 µg/mL. For the same substance, the IC50, pseudovirus neutralization in test [10] was found to be 4.37 µg/mL.
